Measured values taken from article PMC314469, “Protein Interaction Networks by Proteome Peptide Scanning” (PLoS Biology, 2004).

T1: amphyphisin SH3 (AMPH_HUMAN), P49418
T1 chain: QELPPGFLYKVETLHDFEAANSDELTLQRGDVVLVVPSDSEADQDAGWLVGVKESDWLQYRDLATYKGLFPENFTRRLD


Target: T1, amphyphisin SH3 (AMPH_HUMAN), P49418
Test: SPOT array

| normalised SPOT signal, Boehringer light units (BLU); mean over the file's lines of this peptide | Binder |
| --- | --- |
| 370 | IDEALLRPGRLEVK [P46459 379-392] |
| 41.5 | IGYDFRRPLAQLRE [O60288 996-1009] |
| 113 | IEPQIRRPRSLSSP [O43165 457-470] |
| 317 | IDPAILRPGRLDKT [O15381 730-743] |
| 4170 | IFVAPKRPSPLPRA [Q9NZP6 64-77] |
| 26.6 | ILDTLRRPKPVVDP [Q9NQU5 43-56] |
| 73.4 | IIPSPKRPVKLLSG [P04114 925-938] |
| 17700 | ILGPPRRPSRHDNS [Q9NZN5 600-613] |
| 5480 | IHSDPLRPRRETSH [P20849 240-253] |
| 97.4 | ISHLPSRPVKPNII [Q9BZQ1 159-172] |
| 28.9 | IKFVIKRPELLTHS [P78347 534-547] |
| 32 | IIQELRRPKYTIYF [Q9Y4Z6 82-95] |
| 39.7 | IFSTLKRPQVETKT [Q96NM3 19-32] |
| 3250 | IIRPPVRPPDPPSR [O60890 736-750] |
| 54.6 | ALRGLVRPHKKRKK [Q9NY93 500-513] |
| 111 | IFMYLRRPTEESVE [Q96RC0 189-202] |
| 81.7 | IFDGIQRPLKDINE [P38607 97-110] |

The next lines start with the binder.

| Binder | normalised SPOT signal, Boehringer light units (BLU); mean over the file's lines of this peptide |
| --- | --- |
| IDPALRRPGRFDRE [Q96IW6 580-593] | 314 |
| IDPALLRPGRLDKS [O43933 989-1002] | 619 |
| IKTPPKRPGGRRRG [Q15910 343-356] | 68.6 |
| IGRNIARPWKLIYY [Q15361 592-605] | 205 |
| ALQSPKRPRSPGSN [P78347 665-678] | 31.5 |
| IDPAILRPGRPDQL [Q9HAP0 257-270] | 220 |
| ILAKISRPKKRAKT [P48048 178-191] | 123 |
| ISPEFKRPRDIAVD [Q9NZR2 3964-3977] | 30.4 |
| IIHVISRPLKAPPA [Q9NRY3 784-797] | 83.7 |
| IEEVPPRPPSPPKK [Q16348 18-32] | 225 |
| ISTKLVRPKRKHGT [P42679 203-216] | 2410 |
| IGVSPGRPGKSVLF [Q92918 675-688] | 131 |
| IAWGLRRPIRLQMQ [Q9H2L5 59-72] | 489 |
| ILGSPARPPFSFQP [Q96C66 716-730] | 33 |
| IAEALSRPGREASL [O15069 1001-1014] | 932 |
| IIRQIRRPKNVVLR [O94887 105-118] | 15.8 |
| IKILPARPIKESEY [Q9P2U9 65-78] | 118 |
| IKPFPSRPPVLTQE [Q9P2K1 327-341] | 48.4 |
| IFGPLKRPIVEFSL [Q9NW13 566-579] | 27.1 |
| IDPAILRPGRLDQL [P55072 629-642] | 304 |
| ISQKIKRPANSGEL [Q9H4G7 129-142] | 45.6 |
| IKKDLSRPQKPQLV [P31629 870-883] | 107 |
| ALQPPRRPKSSNPF [Q9Y6N1 67-80] | 140 |
| IKILLRRPNEKKSK [P32246 223-236] | 37.1 |
| ILGFPLRPNRGLYQ [O95972 116-129] | 8510 |

Target: endophilin SH3 (SH3G2_HUMAN), Q99962
Test: SPOT array

| normalised SPOT signal, Boehringer light units (BLU); mean over the file's lines of this peptide | Binder |
| --- | --- |
| 0 | IDEALLRPGRLEVK [P46459 379-392] |
| 205 | IGYDFRRPLAQLRE [O60288 996-1009] |
| 365 | IEPQIRRPRSLSSP [O43165 457-470] |
| 225 | IDPAILRPGRLDKT [O15381 730-743] |
| 7170 | IFVAPKRPSPLPRA [Q9NZP6 64-77] |
| 0 | ILDTLRRPKPVVDP [Q9NQU5 43-56] |
| 1060 | IIPSPKRPVKLLSG [P04114 925-938] |
| 5800 | ILGPPRRPSRHDNS [Q9NZN5 600-613] |
| 1340 | IHSDPLRPRRETSH [P20849 240-253] |
| 120 | ISHLPSRPVKPNII [Q9BZQ1 159-172] |
| 63.7 | IKFVIKRPELLTHS [P78347 534-547] |
| 134 | IIQELRRPKYTIYF [Q9Y4Z6 82-95] |
| 36.9 | IFSTLKRPQVETKT [Q96NM3 19-32] |
| 3430 | IIRPPVRPPDPPSR [O60890 736-750] |
| 108 | ALRGLVRPHKKRKK [Q9NY93 500-513] |
| 165 | IFMYLRRPTEESVE [Q96RC0 189-202] |
| 127 | IFDGIQRPLKDINE [P38607 97-110] |

The remaining lines, values behind:

| Binder | normalised SPOT signal, Boehringer light units (BLU); mean over the file's lines of this peptide |
| --- | --- |
| IDPALRRPGRFDRE [Q96IW6 580-593] | 108 |
| IDPALLRPGRLDKS [O43933 989-1002] | 0 |
| IKTPPKRPGGRRRG [Q15910 343-356] | 628 |
| IGRNIARPWKLIYY [Q15361 592-605] | 314 |
| ALQSPKRPRSPGSN [P78347 665-678] | 256 |
| IDPAILRPGRPDQL [Q9HAP0 257-270] | 169 |
| ILAKISRPKKRAKT [P48048 178-191] | 58.3 |
| ISPEFKRPRDIAVD [Q9NZR2 3964-3977] | 14.9 |
| IIHVISRPLKAPPA [Q9NRY3 784-797] | 71.7 |
| IEEVPPRPPSPPKK [Q16348 18-32] | 4240 |
| ISTKLVRPKRKHGT [P42679 203-216] | 97.8 |
| IGVSPGRPGKSVLF [Q92918 675-688] | 128 |
| IAWGLRRPIRLQMQ [Q9H2L5 59-72] | 846 |
| ILGSPARPPFSFQP [Q96C66 716-730] | 1550 |
| IAEALSRPGREASL [O15069 1001-1014] | 142 |
| IIRQIRRPKNVVLR [O94887 105-118] | 49.2 |
| IKILPARPIKESEY [Q9P2U9 65-78] | 458 |
| IKPFPSRPPVLTQE [Q9P2K1 327-341] | 437 |
| IFGPLKRPIVEFSL [Q9NW13 566-579] | 61.9 |
| IDPAILRPGRLDQL [P55072 629-642] | 87 |
| ISQKIKRPANSGEL [Q9H4G7 129-142] | 24.2 |
| IKKDLSRPQKPQLV [P31629 870-883] | 96.8 |
| ALQPPRRPKSSNPF [Q9Y6N1 67-80] | 22500 |
| IKILLRRPNEKKSK [P32246 223-236] | 81 |
| ILGFPLRPNRGLYQ [O95972 116-129] | 3140 |
